The values below come from patent US20070053837A1, “Radiopharmaceuticals for cancer diagnosis and treatment” (priority 2003, published 2007).

In one series the test system is gliomas / glioblastoma. More on the design: species or system patients. As to conditions: in vivo. From the text:
As a third group which can serve as a control, 5 advanced cases that had been treated by the so called standard regimens with virtually no therapeutic option left anymore were included. […] In cases with biopsy alone, average survival is around 9 weeks without further treatment. In the 4 cases of this pilot study, all patients survived at least 2 months and up to 9 months, and In a special case even show a remarkable partial response. In the resected 5 cases followed by Internal radionuclide conjugate brachytherapy, overall survival appeared to be longer than expected which is in the range between 14 and 26 months. According to the only large randomized trial of 1970s which serves as historical control, resection alone would have led to an expected survival of about 4 months, and resection plus an external beam radiotherapy to a mean survival of about 9.5 months. […] This interpretation of the data is further supported by an impressive partial response (case W. […] A key question in local glioma therapy is whether one can achieve to reach infiltrating tumor cell nests or satellite lesion. […] The presently used dissipative Y-90 (range 3-6 mm) is more suitable for bulky lesions.

The format of series [1] is in vitro ADME, patients. As for the experimental part: Further stability test by in vitro experiments incubating ^90Y-DOTAGA-Substance P in different CSF (cerebrospinal fluid) aspirates from patients are executed.
In the next series the target is T1, NK1 receptors (Homo sapiens, UniProt P25103).
T1 construct: In vitro autoradiography is performed with tumor tissue expressing NK1 receptors; from tissue
The series is described as follows: Binding affinity to NK-1 receptors, in vitro autoradiography, displacement of ^125I-Bolton-Hunter-SP. As to conditions: tumor tissue expressing NK1 receptors; radioligand ^125I-Bolton-Hunter-SP; concentrations 0.1 nM to 1'000 nM; read-out: IC50 ± SEM (mean value). Here is the method: Example C4 Binding Affinity to NK-1 Receptors In vitro autoradiography is performed with tumor tissue expressing NK1 receptors. The used radioligand is ^125I-Bolton-Hunter-SP. Displacement experiments are performed on successive sections with the various compounds listed in the Table given in concentrations ranging from 0.1 nM to 1'000 nM.

Square brackets hold non-standard residues; d marks the D form. Peptide text beside a SMILES is read from it. * marks the point of attachment. DOTA = O=C(O)CN1CCN(CC(=O)O)CCN(CC(=O)*)CCN(CC(=O)O)CC1; Met(O2) = CS(=O)(=O)CC[C@H](N)C(=O)O; 2Thi = N[C@@H](Cc1cccs1)C(=O)O; Sar = CNCC(=O)O Some results are limits rather than exact numbers.

T1 sequence (P25103 whole entry): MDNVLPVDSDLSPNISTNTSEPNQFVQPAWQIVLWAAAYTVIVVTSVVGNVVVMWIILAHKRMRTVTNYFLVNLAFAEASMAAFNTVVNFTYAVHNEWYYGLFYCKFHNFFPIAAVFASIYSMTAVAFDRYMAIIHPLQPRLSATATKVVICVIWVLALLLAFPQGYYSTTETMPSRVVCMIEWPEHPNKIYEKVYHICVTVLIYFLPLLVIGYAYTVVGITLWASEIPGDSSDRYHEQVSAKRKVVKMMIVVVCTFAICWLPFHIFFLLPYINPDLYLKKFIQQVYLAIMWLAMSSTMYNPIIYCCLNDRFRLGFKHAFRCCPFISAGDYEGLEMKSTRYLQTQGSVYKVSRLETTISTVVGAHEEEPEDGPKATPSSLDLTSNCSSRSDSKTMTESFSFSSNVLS

As to `CSCC[C@H](NC(=O)[C@H](CC(C)C)NC(=O)CNC(=O)[C@H](Cc1ccccc1)NC(=O)[C@H](Cc1ccccc1)NC(=O)[C@H](CCC(N)=O)NC(=O)[C@H](CCC(N)=O)NC(=O)[C@@H]1CCCN1C(=O)[C@H](CCCCN)NC(=O)[C@@H]1CCCN1C(=O)[C@H](CCCNC(=N)N)NC(=O)CCC(C(=O)O)N1CCN(CC(=O)O)CCN(CC(=O)O)CCN(CC(=O)O)CC1)C(N)=O` (single isomer, unassigned) [^111In-DOTAGA-Substance P, ^111In-DOTAGA-Arg^1-Pro^2-Lys^3-Pro^4-Gln^5-Gln^6-Phe^7-Phe^8-Gly^9-Leu^10-Met^11-NH2, metal not drawn], the “diffusibility: distance of satellite lesion that becomes visible” value in the series with gliomas / glioblastoma was found to be 4 cm.

For the molecule `CSCC[C@H](NC(=O)[C@H](CC(C)C)NC(=O)CNC(=O)[C@H](Cc1ccccc1)NC(=O)[C@H](Cc1ccccc1)NC(=O)[C@H](CCC(N)=O)NC(=O)[C@H](CCC(N)=O)NC(=O)[C@@H]1CCCN1C(=O)[C@H](CCCCN)NC(=O)[C@@H]1CCCN1C(=O)[C@H](CCCNC(=N)N)NC(=O)CCC(C(=O)O)N1CCN(CC(=O)O)CCN(CC(=O)O)CCN(CC(=O)O)CC1)C(N)=O` (stereo partly drawn) [^90Y-DOTAGA-Substance P, ^90Y-DOTAGA-Arg^1-Pro^2-Lys^3-Pro^4-Gln^5-Gln^6-Phe^7-Phe^8-Gly^9-Leu^10-Met^11-NH2, metal not drawn], in series [1], the “stability in CSF aspirate” value is “stable for several hours” and the “time to complete degradation in CSF aspirate” value is reported as ≤ 5 h.

On to `CC(C)C[C@H](NC(=O)CNC(=O)[C@H](Cc1cccs1)NC(=O)[C@H](Cc1ccccc1)NC(=O)[C@H](CCC(N)=O)NC(=O)[C@H](CCC(N)=O)NC(=O)[C@@H]1CCCN1C(=O)[C@H](CCCCN)NC(=O)[C@@H]1CCCN1C(=O)[C@H](CCCNC(=N)N)NC(=O)CN1CCN(CC(=O)O)CCN(CC(=O)O)CCN(CC(=O)O)CC1)C(=O)N[C@@H](CCS(C)(=O)=O)C(N)=O` [^111In-DOTA-Arg^1-Pro^2-Lys^3-Pro^4-Gln^5-Gln^6Phe^7-Thi^8-Gly^9-Leu^10-Met(O2)^11—NH2, metal not drawn] ({DOTA}-RPKPQQF[2Thi]GL[Met(O2)]-NH2), for which, at NK1 receptors, the IC50 was determined as 0.78 ± 0.03 nM.

Regarding `CSCC[C@H](NC(=O)[C@H](CC(C)C)NC(=O)CNC(=O)[C@H](Cc1cccs1)NC(=O)[C@H](Cc1cccs1)NC(=O)[C@H](CCC(N)=O)NC(=O)[C@H](CCC(N)=O)NC(=O)[C@@H]1CCCN1C(=O)[C@H](CCCCN)NC(=O)[C@@H]1CCCN1C(=O)[C@H](CCCNC(=N)N)NC(=O)CN1CCN(CC(=O)O)CCN(CC(=O)O)CCN(CC(=O)O)CC1)C(N)=O` [^111In-DOTA-[Thi^7, Thi^8]-Substance P, ^111In-DOTA-Arg^1-Pro^2-Lys^3-Pro^4-Gln^5-Gln^6-Thi^7-Thi^8-Gly^9-Leu^10-Met^11-NH2, metal not drawn] ({DOTA}-RPKPQQ[2Thi][2Thi]GLM-NH2), the IC50 at NK1 receptors worked out at 7.7 ± 0.7 nM.

As for `CSCC[C@H](NC(=O)[C@H](CC(C)C)NC(=O)CN(C)C(=O)[C@H](Cc1cccs1)NC(=O)[C@H](Cc1ccccc1)NC(=O)[C@H](CCC(N)=O)NC(=O)[C@H](CCC(N)=O)NC(=O)[C@@H]1CCCN1C(=O)[C@H](CCCCN)NC(=O)[C@@H]1CCCN1C(=O)[C@H](CCCNC(=N)N)NC(=O)CN1CCN(CC(=O)O)CCN(CC(=O)O)CCN(CC(=O)O)CC1)C(N)=O` [^111In-DOTA-[Thi^8, Sar^9]-Substance P, ^111In-DOTA-Arg^1-Pro^2-Lys^3-Pro^4-Gln^5-Gln^6-Phe^7-Thi^8-Sar^9-Leu^10-Met^11-NH2, metal not drawn] ({DOTA}-RPKPQQF[2Thi][Sar]LM-NH2), on NK1 receptors, the IC50 was 3.4 ± 0.4 nM.

For orientation: IC50 means the concentration at which inhibition is half-maximal.
